Reference: article PMC1636413 (Nucleic Acids Research, 2006)
“And” between values parts separate entries of the source, which are not always exact repeats. Equal values may be shown once.

Columns and labels:
SEC [1] = molecular target: the molecule itself; assay: SEC
AUC = molecular target: the molecule itself; assay: AUC
SEC [2] = molecular target: the molecule itself; assay: SEC; remark: listed apart in the source

Row | Protein | stoichiometry N (SEC [1]) | stoichiometry N (AUC) | stoichiometry N (SEC [2])
1 | MutS800^CF (cysteine-free truncated E.coli MutS, residues 1-800, N-terminal His6-tagged) (domain or fragment, UniProt P23909 1-800, looked up) MSAIENFDAHTPMMQQYLRLKAQHPEILLFYRMGDFYELFYDDAKRASQLLDISLTKRGASAGEPIPMAGIPYHAVENYLAKLVNQGESVAIAEQIGDPATSKGPVERKVVRIVTPGTISDEALLQERQDNLLAAIWQDSKGFGYATLDISSGRFRLSEPADRETMAAELQRTNPAELLYAEDFAEMSLIEGRRGLRRRPLWEFEIDTARQQLNLQFGTRDLVGFGVENAPRGLSAAGALLQYAKDTQRTTLPHIRSITMEREQDSIIMDAATRRNLEITQNLAGGAENTLASVLDSTVTPMGSRMLKRWLHMPVRDTRVLLERQQTIGALQDFTAGLQPVLRQVGDLERILARLALRTARPRDLARMRHAFQQLPELRAQLETVDSAPVQALREKMGEFAELRDLLERAIIDTPPVLVRDGGVIASGYNEELDEWRALADGATDYLERLEVRERERTGLDTLKVGFNAVHGYYIQISRGQSHLAPINYMRRQTLKNAERYIIPELKEYEDKVLTSKGKALALEKQLYEELFDLLLPHLEALQQSASALAELDVLVNLAERAYTLNYTSPTFIDKPGIRITEGRHPVVEQVLNEPFIANPLNLSPQRRMLIITGPNMGGKSTYMRQTALIALMAYIGSYVPAQKVEIGPIDRIFTRVGAADDLASGRSTFMVEMTETANILHNATEYSLVLMDEIGRGTSTYDGLSLAWAVAENLANKIKALTLFATHYFELTQLPEKMEGVANVHLDALEHGDTIAFMHSVQDGAASKSYGLAVAALAGVPKEVIKRARQKLRELESIS | 2 |  | 
2 | MutS^CF (cysteine-free full-length E.coli MutS, N-terminal His6-tagged) (natural protein, UniProt P23909 1-853, looked up) MSAIENFDAHTPMMQQYLRLKAQHPEILLFYRMGDFYELFYDDAKRASQLLDISLTKRGASAGEPIPMAGIPYHAVENYLAKLVNQGESVAIAEQIGDPATSKGPVERKVVRIVTPGTISDEALLQERQDNLLAAIWQDSKGFGYATLDISSGRFRLSEPADRETMAAELQRTNPAELLYAEDFAEMSLIEGRRGLRRRPLWEFEIDTARQQLNLQFGTRDLVGFGVENAPRGLSAAGALLQYAKDTQRTTLPHIRSITMEREQDSIIMDAATRRNLEITQNLAGGAENTLASVLDSTVTPMGSRMLKRWLHMPVRDTRVLLERQQTIGALQDFTAGLQPVLRQVGDLERILARLALRTARPRDLARMRHAFQQLPELRAQLETVDSAPVQALREKMGEFAELRDLLERAIIDTPPVLVRDGGVIASGYNEELDEWRALADGATDYLERLEVRERERTGLDTLKVGFNAVHGYYIQISRGQSHLAPINYMRRQTLKNAERYIIPELKEYEDKVLTSKGKALALEKQLYEELFDLLLPHLEALQQSASALAELDVLVNLAERAYTLNYTSPTFIDKPGIRITEGRHPVVEQVLNEPFIANPLNLSPQRRMLIITGPNMGGKSTYMRQTALIALMAYIGSYVPAQKVEIGPIDRIFTRVGAADDLASGRSTFMVEMTETANILHNATEYSLVLMDEIGRGTSTYDGLSLAWAVAENLANKIKALTLFATHYFELTQLPEKMEGVANVHLDALEHGDTIAFMHSVQDGAASKSYGLAVAALAGVPKEVIKRARQKLRELESISPNAAATQVDGTQMSLLSVPEETSPAVEALENLDPDSLTPRQALEWIYRLKSLV | 4 and 2 |  | 
3 | MutS^wt (E.coli MutS, full-length, N-terminal His6-tagged) (natural protein, UniProt P23909 1-853, looked up) MSAIENFDAHTPMMQQYLRLKAQHPEILLFYRMGDFYELFYDDAKRASQLLDISLTKRGASAGEPIPMAGIPYHAVENYLAKLVNQGESVAICEQIGDPATSKGPVERKVVRIVTPGTISDEALLQERQDNLLAAIWQDSKGFGYATLDISSGRFRLSEPADRETMAAELQRTNPAELLYAEDFAEMSLIEGRRGLRRRPLWEFEIDTARQQLNLQFGTRDLVGFGVENAPRGLCAAGCLLQYAKDTQRTTLPHIRSITMEREQDSIIMDAATRRNLEITQNLAGGAENTLASVLDCTVTPMGSRMLKRWLHMPVRDTRVLLERQQTIGALQDFTAGLQPVLRQVGDLERILARLALRTARPRDLARMRHAFQQLPELRAQLETVDSAPVQALREKMGEFAELRDLLERAIIDTPPVLVRDGGVIASGYNEELDEWRALADGATDYLERLEVRERERTGLDTLKVGFNAVHGYYIQISRGQSHLAPINYMRRQTLKNAERYIIPELKEYEDKVLTSKGKALALEKQLYEELFDLLLPHLEALQQSASALAELDVLVNLAERAYTLNYTCPTFIDKPGIRITEGRHPVVEQVLNEPFIANPLNLSPQRRMLIITGPNMGGKSTYMRQTALIALMAYIGSYVPAQKVEIGPIDRIFTRVGAADDLASGRSTFMVEMTETANILHNATEYSLVLMDEIGRGTSTYDGLSLAWACAENLANKIKALTLFATHYFELTQLPEKMEGVANVHLDALEHGDTIAFMHSVQDGAASKSYGLAVAALAGVPKEVIKRARQKLRELESISPNAAATQVDGTQMSLLSVPEETSPAVEALENLDPDSLTPRQALEWIYRLKSLV | 2 and 4 |  | 
4 | MutS^CF/D835R (cysteine-free full-length E.coli MutS with D835R, N-terminal His6-tagged) (natural protein, UniProt P23909 1-853, looked up) MSAIENFDAHTPMMQQYLRLKAQHPEILLFYRMGDFYELFYDDAKRASQLLDISLTKRGASAGEPIPMAGIPYHAVENYLAKLVNQGESVAIAEQIGDPATSKGPVERKVVRIVTPGTISDEALLQERQDNLLAAIWQDSKGFGYATLDISSGRFRLSEPADRETMAAELQRTNPAELLYAEDFAEMSLIEGRRGLRRRPLWEFEIDTARQQLNLQFGTRDLVGFGVENAPRGLSAAGALLQYAKDTQRTTLPHIRSITMEREQDSIIMDAATRRNLEITQNLAGGAENTLASVLDSTVTPMGSRMLKRWLHMPVRDTRVLLERQQTIGALQDFTAGLQPVLRQVGDLERILARLALRTARPRDLARMRHAFQQLPELRAQLETVDSAPVQALREKMGEFAELRDLLERAIIDTPPVLVRDGGVIASGYNEELDEWRALADGATDYLERLEVRERERTGLDTLKVGFNAVHGYYIQISRGQSHLAPINYMRRQTLKNAERYIIPELKEYEDKVLTSKGKALALEKQLYEELFDLLLPHLEALQQSASALAELDVLVNLAERAYTLNYTSPTFIDKPGIRITEGRHPVVEQVLNEPFIANPLNLSPQRRMLIITGPNMGGKSTYMRQTALIALMAYIGSYVPAQKVEIGPIDRIFTRVGAADDLASGRSTFMVEMTETANILHNATEYSLVLMDEIGRGTSTYDGLSLAWAVAENLANKIKALTLFATHYFELTQLPEKMEGVANVHLDALEHGDTIAFMHSVQDGAASKSYGLAVAALAGVPKEVIKRARQKLRELESISPNAAATQVDGTQMSLLSVPEETSPAVEALENLDPRSLTPRQALEWIYRLKSLV | 2 |  | 
5 | MutS-CTD (His6-tagged C-terminal domain of E.coli MutS, residues 801-853) (domain or fragment, UniProt P23909 801-853, looked up) PNAAATQVDGTQMSLLSVPEETSPAVEALENLDPDSLTPRQALEWIYRLKSLV |  | 4 | 2
6 | MutS-CTD^ΔHis6 (MutS-CTD with the N-terminal His6-tag removed by DAPase) (domain or fragment, E.coli, UniProt P23909 801-853, looked up) PNAAATQVDGTQMSLLSVPEETSPAVEALENLDPDSLTPRQALEWIYRLKSLV |  | 4 | 
7 | MutS-CTD^D835R (domain or fragment, E.coli, UniProt P23909 801-853, looked up) PNAAATQVDGTQMSLLSVPEETSPAVEALENLDPRSLTPRQALEWIYRLKSLV |  | 2 | 
